Results from patent publication US8729232.

Tested on: T1, biotinylated 13-mer peptide LCTPSKGSLFTGR (native Mtb motif with arginine to lysine substitution at position 6)
T1 sequence: LCTPSKGSLFTGR

Substance: Mycobacterium tuberculosis formylglycine generating enzyme (Mtb FGE, Rv0712), recombinant
- FGly conversion detected by MALDI-TOF: A peak indicating the FGly-modified species appeared
